From publication PMC9158661

Target: extracellular Cu/Zn superoxide dismutase from Onchocerca volvulus (OvEC-SOD) (Onchocerca volvulus)
Test: SAXS; monodisperse solutions after affinity-tag cleavage, four concentrations 0.5-7.5 mg/ml; molecular mass from forward scattering with bovine serum albumin as reference; compared with the crystallographic dimer (CRYSOL, SREFLEX, GASBOR)

## extracellular Cu/Zn superoxide dismutase from Onchocerca volvulus (OvEC-SOD) (enzyme)
  stoichiometry N: 2
